# T1: HuCD122-His (human, UniProt P14784 27-239)
# T1 construct: Captured on an anti-His CM5 chip; also called interleukin 2 receptor beta; IL2RP
# T1 sequence (looked up): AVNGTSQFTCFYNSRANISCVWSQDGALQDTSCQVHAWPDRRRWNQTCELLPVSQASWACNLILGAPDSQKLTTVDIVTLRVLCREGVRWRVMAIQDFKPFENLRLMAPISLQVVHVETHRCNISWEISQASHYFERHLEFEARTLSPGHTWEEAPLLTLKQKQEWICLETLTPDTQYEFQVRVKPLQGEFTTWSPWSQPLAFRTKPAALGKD
# Target: IL-2 receptor on cells of human PBMC (NK cells, CD4 T cells, CD8 T cells, Tregs)
# Assay: cell-based or functional assay
row,Binder,% of pSTAT5+ cells among NK cells
1,CD20-1-T5-NKCE4-v3 (bispecific antibody) light: not shown heavy: not shown DIQMTQSPSSLSASVGDRVTITCRASQDISNYLNWYQQKPGKAPKLLIYYTSRLHSGVPSRFSGSGSGTDFTFTISSLQPEDIATYFCQQGNTRPWTFGGGTKVEIKASTKGPSVFPLAPSSKSTSGGTAALGCLVKDYFPEPVTVSWNSGALTSGVHTFPAVLQSSGLYSLSSVVTVPSSSLGTQTYICNVNHKPSNTKVDKRVEPKSCDKTHSGSSSSGSSSSGSSSSTKKTQLQLEHLLLDLQMILNGINNYKNPKLTAMLAKKFYMPKKATELKHLQCLEEELKPLEEVLNLAQSKNFHLRPRDLISNINVIVLELKGSETTFMCEYADETATIVEFLNRWITFCQSIISTLT,~1 log
2,CD20-2-T5-NKCE4-v3 (bispecific antibody) light: not shown heavy: not shown DIQMTQSPSSLSASVGDRVTITCRASQDISNYLNWYQQKPGKAPKLLIYYTSRLHSGVPSRFSGSGSGTDFTFTISSLQPEDIATYFCQQGNTRPWTFGGGTKVEIKASTKGPSVFPLAPSSKSTSGGTAALGCLVKDYFPEPVTVSWNSGALTSGVHTFPAVLQSSGLYSLSSVVTVPSSSLGTQTYICNVNHKPSNTKVDKRVEPKSCDKTHSGSSSSGSSSSGSSSSTKKTQLQLEHLLLDLQMILNGINNYKNPKLTAMLAKKFYMPKKATELKHLQCLEEELKPLEEVLNLAQSKNFHLRPRDLISNINVIVLELKGSETTFMCEYADETATIVEFLNRWITFCQSIISTLT,~1 log

# Further lines, results first:
row,% of pSTAT5+ cells among NK cells,Binder
1,~1 log,CD20-4-T5-NKCE4-v3 (bispecific antibody) light: not shown heavy: not shown DIQMTQSPSSLSASVGDRVTITCRASQDISNYLNWYQQKPGKAPKLLIYYTSRLHSGVPSRFSGSGSGTDFTFTISSLQPEDIATYFCQQGNTRPWTFGGGTKVEIKASTKGPSVFPLAPSSKSTSGGTAALGCLVKDYFPEPVTVSWNSGALTSGVHTFPAVLQSSGLYSLSSVVTVPSSSLGTQTYICNVNHKPSNTKVDKRVEPKSCDKTHSGSSSSGSSSSGSSSSTKKTQLQLEHLLLDLQMILNGINNYKNPKLTAMLAKKFYMPKKATELKHLQCLEEELKPLEEVLNLAQSKNFHLRPRDLISNINVIVLELKGSETTFMCEYADETATIVEFLNRWITFCQSIISTLT
2,~1 log,CD20-3-T5-NKCE4-v3 (bispecific antibody) light: not shown heavy: not shown DIQMTQSPSSLSASVGDRVTITCRASQDISNYLNWYQQKPGKAPKLLIYYTSRLHSGVPSRFSGSGSGTDFTFTISSLQPEDIATYFCQQGNTRPWTFGGGTKVEIKASTKGPSVFPLAPSSKSTSGGTAALGCLVKDYFPEPVTVSWNSGALTSGVHTFPAVLQSSGLYSLSSVVTVPSSSLGTQTYICNVNHKPSNTKVDKRVEPKSCDKTHSGSSSSGSSSSGSSSSTKKTQLQLEHLLLDLQMILNGINNYKNPKLTAMLAKKFYMPKKATELKHLQCLEEELKPLEEVLNLAQSKNFHLRPRDLISNINVIVLELKGSETTFMCEYADETATIVEFLNRWITFCQSIISTLT

# Target: T1, HuCD122-His
# Assay: SPR (Biacore), HuCD122-His captured on anti-His CM5 chip, analyte 31.25 nM to 1 µM, steady-state fit
# Description: Briefly, a biacore instrument was used with a CM5 chip comprising an immobilized anti-His antibody. Ligand HuCD122-His was injected at a dilution of […] to be captured on the chip. Proteins CD20-2-T5A-NKCE4-v2, CD20-2-T6AB3-NKCE4-v2A, CD20-2-T13A-NKCE4-v2A was then injected during 120 s with a flow of 10 μL/min, at a concentrations range from 31.25 nM to 1 μM. The interaction between these proteins and HuCD122-His was studied with a dissociation time of 600 s. The chip was then regenerated with NaOH 10 mM at a flow of 40 μL/min during 10 sec.
# Date has been analysed under the steady-state model, that seemed to be the most accurate regarding sensograms appearance.
row,Binder,Kd
1,"CD20-2-T6AB3-NKCE4-v2A (bispecific antibody, human IgG1, kappa) chain 1: not shown chain 2: EVQLVESGGGLVQPDRSLRLSCAASGFTFHDYAMHWVRQAPGKGLEWVSTISWNSGTIGYADSVKGRFTISRDNAKNSLYLQMNSLRAEDTALYYCAKDIQYGNYYYGMDVWGQGTTVTVSSASTKGPSVFPLAPSSKSTSGGTAALGCLVKDYFPEPVTVSWNSGALTSGVHTFPAVLQSSGLYSLSSVVTVPSSSLGTQTYICNVNHKPSNTKVDKRVEPKSCDKTHTCPPCPAPEAEGAPSVFLFPPKPKDTLMISRTPEVTCVVVDVSHEDPEVKFNWYVDGVEVHNAKTKPREEQYNSTYRVVSVLTVLHQDWLNGKEYKCKVSNKALPSSIEKTISKAKGQPREPQVYTLPPSREEMTKNQVSLTCLVKGFYPSDIAVEWESNGQPENNYKTTPPVLDSDGSFFLYSKLTVDKSRWQQGNVFSCSVMHEALHNHYTQKSLSLSPGSTGSQVQLVQSGAEVKKPGSSVKVSCKASGYTFSDYVINWVRQAPGQGLEWMGEIYPGSGTNYYNEKFKAKATITADKSTSTAYMELSSLRSEDTAVYYCARRGRYGLYAMDYWGQGTTVTVSSRTVAAPSVFIFPPSDEQLKSGTASVVCLLNNFYPREAKVQWKVDNALQSGNSQESVTEQDSKDSTYSLSSTLTLSKADYEKHKVYACEVTHQGLSSPVTKSFNRGEC chain 3: DIQMTQSPSSLSASVGDRVTITCRASQDISNYLNWYQQKPGKAPKLLIYYTSRLHSGVPSRFSGSGSGTDFTFTISSLQPEDIATYFCQQGNTRPWTFGGGTKVEIKASTKGPSVFPLAPSSKSTSGGTAALGCLVKDYFPEPVTVSWNSGALTSGVHTFPAVLQSSGLYSLSSVVTVPSSSLGTQTYICNVNHKPSNTKVDKRVEPKSCDKTHSGSSSSGSSSSGSSSSTKKTQLQLEHLLLDLQMILNGINNYKNPKLTAMLTKKFYMPKKATELKHLQCLEEELKPLEEVLNLAQSKNFHLRPRDLISNINVIVLELKGSETTFMCEYADETATIVEFLNRWITFAQSIISTLT",2840 nM
2,"CD20-2-T5A-NKCE4-v2 (bispecific antibody, human IgG1, kappa) chain 1: not shown chain 2: not shown chain 3: DIQMTQSPSSLSASVGDRVTITCRASQDISNYLNWYQQKPGKAPKLLIYYTSRLHSGVPSRFSGSGSGTDFTFTISSLQPEDIATYFCQQGNTRPWTFGGGTKVEIKASTKGPSVFPLAPSSKSTSGGTAALGCLVKDYFPEPVTVSWNSGALTSGVHTFPAVLQSSGLYSLSSVVTVPSSSLGTQTYICNVNHKPSNTKVDKRVEPKSCDKTHSGSSSSGSSSSGSSSSTKKTQLQLEHLLLDLQMILNGINNYKNPKLTAMLAKKFYMPKKATELKHLQCLEEELKPLEEVLNLAQSKNFHLRPRDLISNINVIVLELKGSETTFMCEYADETATIVEFLNRWITFCQSIISTLT",1810 nM

# Source: patent publication US20250002601A1 (INNATE PHARMA, published 2025)
